Experimental data as given in publication PMC11552376, “Specific binding between Arabidopsis thaliana phytochrome-interacting factor 3 (AtPIF3) bHLH and G-box originated prior to embryophyte emergence” (BMC Plant Biology, 2024).

How the values were obtained:
[1] = biological target: AtPIF3-bHLH K362A mutant (Arabidopsis thaliana) (UniProt O80536); assay: SEC; Superdex75 size exclusion column, UV trace at 280 nm, compared with molecular weight standards (albumin, carbonic anhydrase, cytochrome c, vitamin B12); gel filtration buffer of the methods: 30 mM HEPES, 500 mM NaCl, pH 7.4; oligomeric state of the protein with itself
[2] = biological target: the molecule itself; assay: as above
AtPIF3-bHLH WT [3] = biological target: T1, AtPIF3-bHLH WT (Arabidopsis thaliana, UniProt O80536 340-397); assay: ITC; ITC: 30 mM HEPES, 125 mM NaCl, pH 7.5, 25 C, 400 uM protein into 40 uM DNA; fEMSA: 30 mM HEPES, 500 mM NaCl, pH 7.4, on ice 30 min, 3 uM probe, 10% native gel in 0.5x TBE at 4 C; settings: protein: recombinant; tags: C-terminal His6; chain copies: 2; blunt
T1 sequence: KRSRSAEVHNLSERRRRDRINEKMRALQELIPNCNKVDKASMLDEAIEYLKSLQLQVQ

AtPIF3-bHLH WT [4] = biological target: T1, AtPIF3-bHLH WT; assay: EMSA; DNA:protein 1:1 to 1:20; ITC: 30 mM HEPES, 125 mM NaCl, pH 7.5, 25 C, 400 uM protein into 40 uM DNA; fEMSA: 30 mM HEPES, 500 mM NaCl, pH 7.4, on ice 30 min, 3 uM probe, 10% native gel in 0.5x TBE at 4 C; settings: protein: recombinant; tags: C-terminal His6; chain copies: 2; label: 5' fluorescein; blunt

“AtPIF3-bHLH K362A mutant (from UniProt O80536 343-392) (domain or fragment)” gave a stoichiometry N [1] of 2.

B1: Arabidopsis thaliana PIF3-bHLH (AtPIF3-bHLH) recombinant protein, wild type (domain or fragment, UniProt O80536 340-399, looked up)
chain: KRSRSAEVHNLSERRRRDRINEKMRALQELIPNCNKVDKASMLDEAIEYLKSLQLQVQIM
notes: Cloned between NheI and XhoI of pET21b; also called PIF3-bHLH–His6; WT; source: E. coli Rosetta (DE3), pET21b, purified (HisTrap FF, Superdex75 gel filtration); not shown: His6, C-terminal, kept
In the case of B1, the “stoichiometry N” value [2] is reported as 2.

B2: AtPIF3-bHLH M399A mutant (domain or fragment, Arabidopsis thaliana, UniProt O80536 343-399, looked up)
chain: RSAEVHNLSERRRRDRINEKMRALQELIPNCNKVDKASMLDEAIEYLKSLQLQVQIA
notes: bHLH domain of PIF3 (AT1G09530), Arabidopsis thaliana, with M399A; Site-directed mutant of m1
In the case of B2, the “stoichiometry N” value [2] is reported as 2.

B3: G-box (PER2), ITC (dsDNA)
DNA 1: AGGAACACGTGACCC
DNA 2: GGGTCACGTGTTCCT
B3 was tested, and the Kd (AtPIF3-bHLH WT [3]) was 320 ± 14 nM.

B4: pPIL1 G-box (dsDNA)
DNA 1: GCATTCACGTGAAGT
DNA 2: ACTTCACGTGAATGC
B4: binds (AtPIF3-bHLH WT [4]).
